The target in the assay is T1, MHC class II I-A^b molecules purified by affinity chromatography (;mouse, UniProt P14434 24-218; P14483 28-226).
T1 MHC II alpha: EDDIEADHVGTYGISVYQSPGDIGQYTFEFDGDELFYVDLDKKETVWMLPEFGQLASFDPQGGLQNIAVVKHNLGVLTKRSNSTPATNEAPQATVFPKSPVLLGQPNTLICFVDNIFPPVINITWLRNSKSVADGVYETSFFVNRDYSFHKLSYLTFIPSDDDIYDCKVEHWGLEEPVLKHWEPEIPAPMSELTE
T1 MHC II beta: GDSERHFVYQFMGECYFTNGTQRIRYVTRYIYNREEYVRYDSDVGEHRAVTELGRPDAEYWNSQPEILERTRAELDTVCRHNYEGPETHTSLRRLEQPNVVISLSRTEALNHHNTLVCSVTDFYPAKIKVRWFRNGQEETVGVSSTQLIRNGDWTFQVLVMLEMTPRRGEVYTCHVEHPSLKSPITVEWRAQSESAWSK
As to the kind of experiment: competitive peptide binding assay on purified I-Ab.
A word on the IC50: it is the concentration that gives 50% inhibition. In turn, LFAINYTGASMNPARSF [AQP4 p202-218] came in with an IC50 of 16 nM.
The result for VAFKGVWTQAFW [AQP4 p24-35] reads 4880 nM; that for GILYLVTPPSVVGGLGVTMV [AQP4 131-150], 112 nM; that for HLFAINYTGASMNPARSFGP [AQP4 201-220], 28 nM.
In turn, LYLVTPPSVVGGLGVT [AQP4 p133-149] returned an IC50 of 184 nM.

Source of the values: patent US20250052751A1 (published 2025).
